The assay concerns the target CryIAb toxin of Bacillus thuringiensis (Bacillus thuringiensis, UniProt P0A370 29-607, 125I-labeled (probe in blots and in the cell binding assay; the unlabeled toxin was the competitor)).

B1: Recombinant BT-R1 protein expressed from the BT-R1 cDNA in pcDNA3 in mammalian cells (receptor)
chain: QERCGYMTAIPRLPRPDNLPVLNFEGQTWSQRPLLPAPERDDLCMDAYHVITANLGTQVIYMDEEIEDEITIAILNYNGPSTPFIELPFLSGSYNLLMPVIRRVDNGEWHLIITQRQHYELPGMQQYMFNVRVDGQSLVAGVSLAIVNIDDNAPIIQNFEPCRVPELGEPGLTECTYQVSDADGRISTEFMTFRIDSVRGDEETFYIERTNIPNQWMWLNMTIGVNTSLNFVTSPLHIFSVTALDSLPNTHTVTMMVQVANVNSRPPRWLEIFAVQQFEEKSYQNFTVRAIDGDTEINMPINYRLITNEEDTFFSIEALPGGKSGAVFLVSPIDRDTLQREVFPLTIVAYKYDEEAFSTSTNVVIIVTDINDQRPEPIHKEYRLAIMEETPLTLNFDKEFGFHDKDLGQNAQYTVRLESVDPPGAAEAFYIAPEVGYQRQTFIMGTLNHSMLDYEVPEFQSITIRVVATDNNDTRHVGVALVHIDLINWNDEQPIFEHAVQTVTFDETEGEGFFVAKAVAHDRDIGDVVEHTLLGNAVNFLTIDKLTGDIRVSANDSFNYHRESELFVQVRATDTLGEPFHTATSQLVIRLNDINNTPPTLRLPRGSPQVEENVPDGHVITQELRATDPDTTADLRFEINWDTSFATKQGRQANPDEFRNCVEIETIFPEINNRGLAIGRVVAREIRHNVTIDYEEFEVLSLTVRVRDLNTVYGDDYDESMLTITIIDMNDNAPVWVEGTLEQNFRVREMSAGGLVVGSVRADDIDGPLYNQVRYTIFPREDTDKDLIMIDFLTGQISVNTSGAIDADTPPRFHLYYTVVASDRCSTEDPADCPPDPTYWETEGNITIHITDTNNKVPQAETTKFDTVVYIYENATHLDEVVTLIASDLDRDEIYHTVSYVINYAVNPRLMNFFSVNRETGLVYVDYETQGSGEVLDRDGDEPTHRIFFNLIDNFMGEGEGNRNQNDTEVLVILLDVNDNAPELPPPSELSWTISENLKQGVRLEPHIFAPDRDEPDTDNSRVGYEILNLSTERDIEVPELFVMIQIANVTGELETAMDLKGYWGTYAIHIRAFDHGIPQMSMNETYELIIHPFNYYAPEFVFPTNDAVIRLARERAVINGVLATVNGEFLERISATDPDGLHAGVVTFQVVGDEESQRYFQVVNDGENLGSLRLLQAVPEEIREFRITIRATDQGTDPGPLSTDMTFRVVFVPTQGEPRFASSEHAVAFIEKSAGMEESHQLPLAQDIKNHLCEDDCHSIYYRIIDGNSEGHFGLDPVRNRLFLKKELIREQSASHTLQVAASNSPDGGIPLPASILTVTVTVREADPRPVFVRELYTAGISTADSIGRELLRLHATQSEGSAITYAIDYDTMVVDPSLEAVRQSAFVLNAQTGVLTLNIQPTATMHGLFKFEVTATDTAGAQDRTDVTVYVVSSQNRVYFVFVNTLQQVEDNRDFIADTFSAGFNMTCNIDQVVPANDPVTGVALEHSTQMRGHFIRDNVPVLADEIEQIRSDLVLLSSIQTTLAARSLVLQDLLTNSSPDSAPDSSLTVYVLASLSAVLGFMCLVLLLTFIIRTRALNRRLEALSMTKYGSLDSGLNRAGIAAPGTNKHTVEGSNPIFNEAIKTPDLDAISEGSNDSDLIGIEDLPHFGNVFMDPEVNEKANGYPEVANHNNNFAFNPTPFSPEFVNGQFRKI
modifications: N-glycosylated (210 kD)
Molecule B1 yielded a Kd of 1.01 nM.

In general, Kd refers to the equilibrium constant for the complex coming apart. High values mean lower affinity, low ones higher affinity.
